# Like-named read-outs stand apart in the source and are kept apart here.
# B1: ICAM-2: biochemically purified soluble human ICAM-2 protein from retrovirally transduced NIH3T3 cells; ICAM-2-FC fusion also used (protein, UniProt P13598 25-223, looked up)
# extracellular domain: KVFEVHVRPKKLAVEPKGSLEVNCSTTCNQPEVGGLETSLDKILLDEQAQWKHYLVSNISHDTVLQCHFTCSGKQESMNSNVSVYQPPRQVILTLQPTLVAVGKSFTIECRVPTVEPLDSLTLFLFRGNETLHYETFGKAAPAPQEATATFNSTADREDGHRNFSCLAVLDLMSRGGNIFHKHSAPKMLEIYEPVSDSQ
# modifications: extracellular domain
# notes: biochemically purified soluble human ICAM-2 protein from retrovirally transduced NIH3T3 cells; ICAM-2-FC fusion also used
# Tests used:
# [1] = molecular target: T1, cell surface LFA-1 (Homo sapiens, UniProt P20701); test: ICAM-2-FITC surface binding on Jurkat cells by flow cytometry (single cell binding measurements)
# T1 construct: within the physiological context of cell surface LFA-1; endogenous in cells; host or cells: Jurkat T cells
# T1 sequence (P20701 26-1170): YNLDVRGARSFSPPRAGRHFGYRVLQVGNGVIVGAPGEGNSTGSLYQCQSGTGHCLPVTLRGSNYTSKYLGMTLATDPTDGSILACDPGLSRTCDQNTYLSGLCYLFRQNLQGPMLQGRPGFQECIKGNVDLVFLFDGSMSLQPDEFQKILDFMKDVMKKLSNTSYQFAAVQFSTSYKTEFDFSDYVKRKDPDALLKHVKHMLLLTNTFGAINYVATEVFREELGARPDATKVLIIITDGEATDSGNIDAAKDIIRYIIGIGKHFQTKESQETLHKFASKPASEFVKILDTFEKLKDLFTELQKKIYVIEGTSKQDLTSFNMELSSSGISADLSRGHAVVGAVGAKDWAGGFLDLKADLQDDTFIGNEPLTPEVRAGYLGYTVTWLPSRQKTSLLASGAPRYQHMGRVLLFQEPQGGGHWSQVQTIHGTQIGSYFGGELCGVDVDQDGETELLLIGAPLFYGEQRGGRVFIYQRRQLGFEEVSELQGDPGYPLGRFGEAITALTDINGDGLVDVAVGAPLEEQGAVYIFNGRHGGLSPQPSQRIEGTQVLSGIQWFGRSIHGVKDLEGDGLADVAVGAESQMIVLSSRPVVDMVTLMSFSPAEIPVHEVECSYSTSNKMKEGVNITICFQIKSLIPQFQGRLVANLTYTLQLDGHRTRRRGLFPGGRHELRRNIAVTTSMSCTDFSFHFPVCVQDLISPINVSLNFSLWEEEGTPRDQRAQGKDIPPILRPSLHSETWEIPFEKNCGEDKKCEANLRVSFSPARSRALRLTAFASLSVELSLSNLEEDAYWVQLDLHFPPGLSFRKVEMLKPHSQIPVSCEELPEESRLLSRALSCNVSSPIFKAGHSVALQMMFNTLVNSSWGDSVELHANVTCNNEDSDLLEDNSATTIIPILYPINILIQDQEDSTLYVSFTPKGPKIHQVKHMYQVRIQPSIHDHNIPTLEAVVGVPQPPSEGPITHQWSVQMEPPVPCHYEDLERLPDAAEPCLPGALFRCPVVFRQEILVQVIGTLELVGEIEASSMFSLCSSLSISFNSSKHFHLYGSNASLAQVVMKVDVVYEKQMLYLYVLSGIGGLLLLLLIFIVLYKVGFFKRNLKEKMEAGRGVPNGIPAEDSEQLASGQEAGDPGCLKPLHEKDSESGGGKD
# T1 sequence (P05107 23-769 partner): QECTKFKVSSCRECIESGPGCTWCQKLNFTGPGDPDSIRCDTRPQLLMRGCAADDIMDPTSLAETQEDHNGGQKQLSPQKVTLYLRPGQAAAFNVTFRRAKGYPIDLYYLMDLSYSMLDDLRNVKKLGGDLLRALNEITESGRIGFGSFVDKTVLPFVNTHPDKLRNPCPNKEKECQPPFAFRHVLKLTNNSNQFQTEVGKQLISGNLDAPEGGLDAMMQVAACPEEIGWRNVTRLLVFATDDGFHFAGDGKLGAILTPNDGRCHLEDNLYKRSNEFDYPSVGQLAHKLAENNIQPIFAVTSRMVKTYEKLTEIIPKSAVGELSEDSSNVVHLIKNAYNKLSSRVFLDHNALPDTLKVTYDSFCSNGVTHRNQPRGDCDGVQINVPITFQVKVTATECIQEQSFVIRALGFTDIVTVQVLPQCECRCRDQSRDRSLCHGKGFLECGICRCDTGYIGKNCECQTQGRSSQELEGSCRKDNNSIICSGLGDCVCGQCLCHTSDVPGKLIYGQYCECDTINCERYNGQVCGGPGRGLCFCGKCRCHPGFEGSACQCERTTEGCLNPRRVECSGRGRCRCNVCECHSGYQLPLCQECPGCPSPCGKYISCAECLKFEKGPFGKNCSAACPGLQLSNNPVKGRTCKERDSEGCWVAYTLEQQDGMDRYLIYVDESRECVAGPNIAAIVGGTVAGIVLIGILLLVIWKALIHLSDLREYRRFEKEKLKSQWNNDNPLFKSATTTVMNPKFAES
# Method: A) Purified human ICAM-2, from retrovirally transduced NIH3T3, (see materials and methods) was tested for purity, size, and aggregate formation by native gel electrophoresis and gel filtration. Analysis of purified ICAM-2, from two different preps and ICAM2-FC from NSO cells. Molecular weight was calculated using relative distance migration from a molecular weight standard. Concentration was determined using serial dilutions of BSA as a standard. […] B) ICAM-2, ligand binding to cell surface as a function of time. 5×10^6, unstimulated and PMA stimulated (1, μg/ml, 30, min) Jurkat T cells were incubated with ICAM-2-FITC or LFA-1-FITC antibody (1, μg/ml) and subjected to time dependent flow cytometry. Mean fluorescence intensity was plotted per time of a gated homogenous cell population. Flow rate was maintained at 200-300, cells/second, with fluorescence intensity values acquired at 10, millisecond intervals for 1200, seconds. C) Flow cytometric analysis of ICAM-2-FITC and a-LFA-1-FITC surface binding on cytochalisin D treated (10, μM, 30, min) Jurkat cells at 37° C. and 4° C. D) Curve fit analysis of ICAM-2-FITC binding per 10^4, cells. Jurkat cells were incubated with ICAM-2-FITC at 37° C. for 30, min at indicated concentrations in 50, μL volume. Cells were washed 1×, and analyzed for mean fluorescent intensity (MFI) of 10^4, cells. Percent ICAM-2-FITC bound was calculated from the following equation: 100×[(MFI[×]−MFIunstained)/(MFI[saturated]−MFIunstained)] where [×]=ICAM-2-FITC concentration and [saturated]=concentration that saturated binding. Values were fit to the equation Y=m1*M0/(m2+M0) (see materials and methods).
# Full length ICAM2 cDNA was obtained from Jurkat cells and cloned into retroviral vector PBM-Z-IN at the BamHI/Sal1 site as described (Perez et al., 2002). Human ICAM-2 was overexpressed in NIH3T3 cells by retroviral infection and harvested by immunoaffinity chromatography. ICAM-2 was affinity purified using a two step lysing procedure and subsequent purification on an anti-ICAM-2 solid support. […] Batch lysate of harvested supernatant was performed (4° C., for 2 hrs), and washed 4 times in buffer C (0.1% Tween-20, PBS pH 7.4). ICAM-2 protein was eluted by 4.5 M NaCl (in Tris pH 6.8), dialyzed overnight (in PBS pH 7.4, 0.001% azide, 0.01% glycerol, 4° C.), concentrated using size exclusion spin chromatography and stabilized using 0.01% glycerol. Anti-ICAM-2 solid support was re-equilibrated in buffer C, stored in 0.001% thimerosol and re-used up to 3 times. Purity was >98% as assessed by coomasie gel. […] Gel imaging was performed on a VersaDoc machine (Biorad) and analyzed using Quantity One quantitation software (Biorad). […]
# [2] = system: LFA-1; test: LFA-1 activation by mAb24-Alexa633 staining, flow cytometry; assay type: cell-based, human; conditions: Jurkat cells, agents 10 μM 30 min, PMA 1 μg/ml, prior to ICAM-2 10 μg/ml 30 min
# Method: A) Confocal microscopy of actin and microtubule architecture upon ICAM-2, stimulus (10, μg/ml, 30, min) in Jurkat cells. Actin was stained by phalloidin-alexa633, and tubulin by taxol-alexa546. Inserts display enlarged cell image of representative treatment B) Flow cytometric staining for actin and microtubules as described above. C) Left: Fluorescence topography analysis of ICAM-2-FITC (1 μg/ml, time as indicated) surface distribution. Intensity color gradient depicts high and low fluorescent intensity values. Right: Confocal microscopy of ICAM-2-FITC surface binding (10 μg/ml, 30, min) and anti-β2-alexa568, (clone CTB104). D) Staining for ICAM-2-FITC surface binding (fluorescence intensity) and surface distribution (fluorescence pulse) in cytochalisin D treated Jurkat cells at 37° C. and 4° C. by flow cytometry. E) Values for ICAM-2-FITC fluorescence intensity per time-of-flight per cell as described in text. F) Flow cytometric staining for LFA-1 activation by mAb24-alexa633. Stimuli as indicated (10, μM, 30, min), PMA (1, μg/ml) prior to ICAM-2, stimulation (10, μg/ml, 30, min). Staining was performed at 37° C. G) Mean fluorescence intensity (MFI) values of mAb24-633, and ICAM-2, cluster values, computed as described above, as a function of time.
# Intracellular and extracellular staining was performed as described (Perez and Nolan, 2002). Intracellular probes for active kinases were made by conjugating phospho-specific antibodies to the ALEXA FLUOR® dye series as described and used in phospho-protein optimized conditions (Perez and Nolan, 2002). Kinetic analyses was performed by direct application of fixation buffer in time synchronized 96-wells maintained at 37° C. Intracellular actin and microtubule staining was performed using phalloidin-Alexa633 and taxol-Alexa546 dyes (Molecular Probes). Adhesion and clustering assays were performed using ICAM-2-FITC as described in text. LFA-1 activation was assessed by either mAb24-Alexa633 or mAb24-Alexa546 conjugate, surface stained at 37° C. Flow cytometry data are representative of 3 independent experiments of 10^6 cells/sample. 10-50,000 events were collected and manually calibrated on a FACSCalibur™ machine. Data plotted in bar graph format is expressed as geometric mean fluorescence intensity (MFI) and normalized for isotype controls. Log ratios are defined as the MFI of stimulus to the MFI of unstimulated cells. Data was analyzed using Flowjo™ software (Treestar).
Molecule,ICAM-2 adhesion measured by binding of ICAM-2-FITC ([1]; PKC inhibitor treated cells),LFA-1 activation (mAb24 binding) [2],"Kd ([1]; Jurkat cells, 37° C., 30 min, curve fit analysis, read-out: dissociation constant of ICAM-2-FITC binding)","Kd ([1]; per 10^4 cells, read-out: calculated ICAM-2 affinity)",LFA-1 activation (mAb24 binding) ([2]; listed as full length ICAM-2)
CN(C)CCCn1cc(C2=C(c3c[nH]c4ccccc34)C(=O)NC2=O)c2ccccc21 [bisindolymaleimide I],not affected,inhibited ICAM-2 induced LFA-1 activation,–,–,–
B1,–,bimodal population in active LFA-1,210 ± 70 nM,217 ± 66 nM,resulted in active LFA-1

# Reference: patent US8962263B2, “Methods and compositions for detecting the activation state of multiple proteins in single cells” (The Board of Trustees of the Leland Stanford Junior …, priority 2001, dated 2015)
